The target in data set [1] is T1, latent recombinant cgAUS1 (pro-cgAUS1) (Coreopsis grandiflora, UniProt A0A075DN54).
T1 construct: heterologously expressed latent pro-enzyme with C-terminal shielding domain
T1 sequence (A0A075DN54 86-602): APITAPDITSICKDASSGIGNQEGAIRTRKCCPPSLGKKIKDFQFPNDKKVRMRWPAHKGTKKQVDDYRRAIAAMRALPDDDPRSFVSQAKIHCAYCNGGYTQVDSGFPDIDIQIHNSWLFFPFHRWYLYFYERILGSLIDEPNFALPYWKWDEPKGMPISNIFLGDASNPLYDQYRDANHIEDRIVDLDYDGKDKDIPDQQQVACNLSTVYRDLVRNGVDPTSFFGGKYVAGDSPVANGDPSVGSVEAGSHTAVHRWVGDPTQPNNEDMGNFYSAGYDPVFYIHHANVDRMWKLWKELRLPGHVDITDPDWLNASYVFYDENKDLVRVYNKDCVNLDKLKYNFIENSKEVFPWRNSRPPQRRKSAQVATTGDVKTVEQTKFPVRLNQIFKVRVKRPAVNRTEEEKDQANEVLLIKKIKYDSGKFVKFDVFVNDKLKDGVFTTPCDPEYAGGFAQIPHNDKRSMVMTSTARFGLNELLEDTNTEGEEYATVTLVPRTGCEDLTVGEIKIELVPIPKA
Briefly: spectrophotometric pH profile. Format: biochemical. The conditions noted are these: 25 µM butein, 125 mM sodium citrate, pH 3.5 to 7.4; no allosteric activation.

The test system of data set [2] is T2, Cc1ccc(O)c(O)c1.
T2 construct: main core API-IENSKE plus disulfide-linked C-terminal peptide D438-G452; partly phosphorylated or sulfated at Tyr230
Kind of data set: purified protein. Format: biochemical, Coreopsis grandiflora. The conditions noted are these: pH 5.5, suicide substrate.

The subject of data set [3] is T3, O=C(/C=C/c1ccc(O)c(O)c1)c1ccc(O)cc1O.
T3 construct: main core API-IENSKE plus disulfide-linked C-terminal peptide D438-G452; partly phosphorylated or sulfated at Tyr230
Kind of data set: purified protein. In kind it is biochemical, Coreopsis grandiflora. The conditions noted are these: pH 5.5, diphenolase, butein to sulfuretin.

Data set [4] concerns T4, CC(C)(C)c1ccc(O)c(O)c1.
T4 construct: main core API-IENSKE plus disulfide-linked C-terminal peptide D438-G452; partly phosphorylated or sulfated at Tyr230
Kind of data set: purified protein. The conditions noted are these: pH 5.5, suicide substrate. Format: biochemical, Coreopsis grandiflora.

In data set [5] the test system is T5, Oc1ccccc1O.
T5 construct: main core API-IENSKE plus disulfide-linked C-terminal peptide D438-G452; partly phosphorylated or sulfated at Tyr230
Briefly: purified protein. Format: biochemical, Coreopsis grandiflora. The conditions noted are these: pH 5.5.

For `O=C(/C=C/c1ccc(O)c(O)c1)c1ccc(O)cc1O` [Butein], the “spectrophotometric pH profile” value in data set [1] is “pH optimum of recombinant pro-cgAUS1 (filled triangle, dashed lines) and active cgAUS1”.

Take “active cgAUS1 (aurone synthase), sample 1 (Coreopsis grandiflora; DEL436-522)”: in data set [2], the Km is 3110 ± 120 µM, the Vmax was found to be 2300 ± 39 µmol/min/mg, the catalytic constant (kcat) came out at 1590 ± 27 s⁻¹ and the kcat/Km was 512000 ± 22000 M⁻¹ s⁻¹. For the same compound, in data set [3], the Michaelis constant (Km) stood at 52 ± 3 µM, the Vmax was found to be 489 µmol/min/mg, the turnover number (kcat) was determined as 464 ± 16 s⁻¹ and the kcat/Km was 8.93e+06 ± 649000 M⁻¹ s⁻¹. In addition, in data set [4], the Km was determined as 504 ± 20 µM, the Vmax turned out to be 2260 ± 23 µmol/min/mg and the kcat turned out to be 1560 ± 16 s⁻¹. For the same compound, in data set [5], the Km was 4040 ± 690 µM, the kcat was 869 ± 41 s⁻¹ and the kcat/Km came out at 215000 ± 38000 M⁻¹ s⁻¹.
